Source: the supplement of paper PMC10567573

B1: ZNF449 (parent)
chain: TLHQRTHTEERPFKCNYCGKSFRQ

Variants of: B1
Assay: protein stability index of a GFP-peptide fusion (GPS, HEK-293T) (PSI 1-6); higher = more stable
Settings: c terminus: a fixed tail appended
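Further: lentivirally expressed fusions sorted by FACS into six bins by GFP to DsRed ratio, PSI derived from sequencing read proportions per bin multiplied by bin number.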

Variant | protein stability index
TEHQRTHTEERPFKCNYCGKSFRQ [L2E] | 3.64
TFHQRTHTEERPFKCNYCGKSFRQ [L2F] | 3.22
TTHQRTHTEERPFKCNYCGKSFRQ [L2T] | 2.27
TPHQRTHTEERPFKCNYCGKSFRQ [L2P] | 2.88
TGHQRTHTEERPFKCNYCGKSFRQ [L2G] | 3.08
TNHQRTHTEERPFKCNYCGKSFRQ [L2N] | 2.59
TAHQRTHTEERPFKCNYCGKSFRQ [L2A] | 2.95
TYHQRTHTEERPFKCNYCGKSFRQ [L2Y] | 2.64
TVHQRTHTEERPFKCNYCGKSFRQ [L2V] | 2.4
TQHQRTHTEERPFKCNYCGKSFRQ [L2Q] | 2.41
TWHQRTHTEERPFKCNYCGKSFRQ [L2W] | 1.83
TSHQRTHTEERPFKCNYCGKSFRQ [L2S] | 2.7
TKHQRTHTEERPFKCNYCGKSFRQ [L2K] | 2.74
THHQRTHTEERPFKCNYCGKSFRQ [L2H] | 2.45
TMHQRTHTEERPFKCNYCGKSFRQ [L2M] | 2.58
TDHQRTHTEERPFKCNYCGKSFRQ [L2D] | 2.77
TCHQRTHTEERPFKCNYCGKSFRQ [L2C] | 3.15
TRHQRTHTEERPFKCNYCGKSFRQ [L2R] | 2.75
TIHQRTHTEERPFKCNYCGKSFRQ [L2I] | 2.17
TLHQRTHWEERPFKCNYCGKSFRQ [T8W] | 1.82
TLHQRTHEEERPFKCNYCGKSFRQ [T8E] | 3.07
TLHQRTHNEERPFKCNYCGKSFRQ [T8N] | 1.94
TLHQRTHHEERPFKCNYCGKSFRQ [T8H] | 1.18
TLHQRTHSEERPFKCNYCGKSFRQ [T8S] | 2.65

Variant | protein stability index
TLHQRTHFEERPFKCNYCGKSFRQ [T8F] | 2.34
TLHQRTHQEERPFKCNYCGKSFRQ [T8Q] | 2.69
TLHQRTHDEERPFKCNYCGKSFRQ [T8D] | 2.62
TLHQRTHPEERPFKCNYCGKSFRQ [T8P] | 2.4
TLHQRTHMEERPFKCNYCGKSFRQ [T8M] | 2.6
TLHQRTHGEERPFKCNYCGKSFRQ [T8G] | 2.04
TLHQRTHYEERPFKCNYCGKSFRQ [T8Y] | 2.54
TLHQRTHIEERPFKCNYCGKSFRQ [T8I] | 2.56
TLHQRTHREERPFKCNYCGKSFRQ [T8R] | 1.99
TLHQRTHLEERPFKCNYCGKSFRQ [T8L] | 1.64
TLHQRTHAEERPFKCNYCGKSFRQ [T8A] | 2.29
TLHQRTHVEERPFKCNYCGKSFRQ [T8V] | 2.59
TLHQRTHCEERPFKCNYCGKSFRQ [T8C] | 2.3
TLHQRTHKEERPFKCNYCGKSFRQ [T8K] | 3.13
TLHQFTHTEERPFKCNYCGKSFRQ [R5F] | 1.78
TLHQGTHTEERPFKCNYCGKSFRQ [R5G] | 1.83
TLHQQTHTEERPFKCNYCGKSFRQ [R5Q] | 1.89
TLHQWTHTEERPFKCNYCGKSFRQ [R5W] | 2.15
TLHQDTHTEERPFKCNYCGKSFRQ [R5D] | 2.91
TLHQNTHTEERPFKCNYCGKSFRQ [R5N] | 1.65
TLHQATHTEERPFKCNYCGKSFRQ [R5A] | 2.44
TLHQTTHTEERPFKCNYCGKSFRQ [R5T] | 2.45
TLHQCTHTEERPFKCNYCGKSFRQ [R5C] | 4.17
TLHQYTHTEERPFKCNYCGKSFRQ [R5Y] | 2.4

Variant | protein stability index
TLHQLTHTEERPFKCNYCGKSFRQ [R5L] | 2.24
TLHQITHTEERPFKCNYCGKSFRQ [R5I] | 1.97
TLHQMTHTEERPFKCNYCGKSFRQ [R5M] | 1.76
TLHQSTHTEERPFKCNYCGKSFRQ [R5S] | 2.45
TLHQETHTEERPFKCNYCGKSFRQ [R5E] | 3.05
TLHQKTHTEERPFKCNYCGKSFRQ [R5K] | 2.77
TLHQHTHTEERPFKCNYCGKSFRQ [R5H] | 2.73
TLHQPTHTEERPFKCNYCGKSFRQ [R5P] | 2.12
TLHQVTHTEERPFKCNYCGKSFRQ [R5V] | 3.27
TLHQRTHTKERPFKCNYCGKSFRQ [E9K] | 3.15
TLHQRTHTHERPFKCNYCGKSFRQ [E9H] | 2.71
TLHQRTHTFERPFKCNYCGKSFRQ [E9F] | 1.25
TLHQRTHTVERPFKCNYCGKSFRQ [E9V] | 1.76
TLHQRTHTCERPFKCNYCGKSFRQ [E9C] | 2.4
TLHQRTHTNERPFKCNYCGKSFRQ [E9N] | 1.88
TLHQRTHTWERPFKCNYCGKSFRQ [E9W] | 1.77
TLHQRTHTLERPFKCNYCGKSFRQ [E9L] | 1.2
TLHQRTHTGERPFKCNYCGKSFRQ [E9G] | 2.97
TLHQRTHTPERPFKCNYCGKSFRQ [E9P] | 1.93
TLHQRTHTIERPFKCNYCGKSFRQ [E9I] | 1.8
TLHQRTHTQERPFKCNYCGKSFRQ [E9Q] | 2.72
TLHQRTHTYERPFKCNYCGKSFRQ [E9Y] | 2.19
TLHQRTHTSERPFKCNYCGKSFRQ [E9S] | 2.55
TLHQRTHTRERPFKCNYCGKSFRQ [E9R] | 2.26

Variant | protein stability index
TLHQRTHTAERPFKCNYCGKSFRQ [E9A] | 2
TLHQRTHTDERPFKCNYCGKSFRQ [E9D] | 2.15
TLLQRTHTEERPFKCNYCGKSFRQ [H3L] | 1.85
TLKQRTHTEERPFKCNYCGKSFRQ [H3K] | 2.89
TLAQRTHTEERPFKCNYCGKSFRQ [H3A] | 2.76
TLPQRTHTEERPFKCNYCGKSFRQ [H3P] | 2.66
TLRQRTHTEERPFKCNYCGKSFRQ [H3R] | 2.82
TLGQRTHTEERPFKCNYCGKSFRQ [H3G] | 2.4
TLMQRTHTEERPFKCNYCGKSFRQ [H3M] | 2.25
TLQQRTHTEERPFKCNYCGKSFRQ [H3Q] | 2.83
TLVQRTHTEERPFKCNYCGKSFRQ [H3V] | 1.98
TLWQRTHTEERPFKCNYCGKSFRQ [H3W] | 2.82
TLNQRTHTEERPFKCNYCGKSFRQ [H3N] | 2.62
TLCQRTHTEERPFKCNYCGKSFRQ [H3C] | 3.27
TLDQRTHTEERPFKCNYCGKSFRQ [H3D] | 2.62
TLIQRTHTEERPFKCNYCGKSFRQ [H3I] | 1.99
TLSQRTHTEERPFKCNYCGKSFRQ [H3S] | 2.1
TLYQRTHTEERPFKCNYCGKSFRQ [H3Y] | 2.15
TLTQRTHTEERPFKCNYCGKSFRQ [H3T] | 2.42
TLEQRTHTEERPFKCNYCGKSFRQ [H3E] | 2.87
TLFQRTHTEERPFKCNYCGKSFRQ [H3F] | 2.47
TLHWRTHTEERPFKCNYCGKSFRQ [Q4W] | 2.24
